Starred links: 1 amine or outer side, 2 acyl side, 3 side chain; linkers in the order of their positions; H or OH if unused. Non-standard residues stand in square brackets, D forms with d. Groups on a side chain read outwards from the residue. Primed or numbered codes have the meaning given here. No end group written: not given here. *: point of attachment. γGlu = O=C(O)[C@H](CCC(=O)[*:2])N[*:1]; αMeF = C[C@](N)(Cc1ccccc1)C(=O)O; αMeK = C[C@](N)(CCCCN)C(=O)O; Lauroyl = CCCCCCCCCCCC(=O)*; αMeS = C[C@](N)(CO)C(=O)O; PEG2′ = not defined here; Aib = CC(C)(N)C(=O)O
T1: glucose-dependent insulinotropic peptide (gastric inhibitory polypeptide) receptor (GIPR), primary cAMP assay … (human, UniProt P48546 22-466)
T1 sequence (looked up): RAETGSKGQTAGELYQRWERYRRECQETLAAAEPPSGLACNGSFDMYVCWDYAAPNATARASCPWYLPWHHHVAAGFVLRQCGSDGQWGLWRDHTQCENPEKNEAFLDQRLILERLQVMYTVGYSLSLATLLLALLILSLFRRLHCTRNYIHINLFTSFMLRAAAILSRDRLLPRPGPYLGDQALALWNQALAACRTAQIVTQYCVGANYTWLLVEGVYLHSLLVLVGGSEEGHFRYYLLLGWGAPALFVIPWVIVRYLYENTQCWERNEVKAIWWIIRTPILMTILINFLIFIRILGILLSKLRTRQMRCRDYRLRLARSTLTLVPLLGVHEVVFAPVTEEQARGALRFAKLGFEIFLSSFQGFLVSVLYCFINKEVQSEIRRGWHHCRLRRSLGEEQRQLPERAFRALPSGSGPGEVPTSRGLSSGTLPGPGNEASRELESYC


Assays:
Test in all cases: cell-based or functional assay
[1] = target: GLP-1 receptor (GLP-1R), primary cAMP assay cell line (human, UniProt P43220 24-463)
[2] = target: glucagon receptor (GCGR), primary cAMP assay cell line (human, UniProt P47871 26-477)
Sequence of glucagon receptor (GCGR), primary cAMP assay cell line (P47871 26-477): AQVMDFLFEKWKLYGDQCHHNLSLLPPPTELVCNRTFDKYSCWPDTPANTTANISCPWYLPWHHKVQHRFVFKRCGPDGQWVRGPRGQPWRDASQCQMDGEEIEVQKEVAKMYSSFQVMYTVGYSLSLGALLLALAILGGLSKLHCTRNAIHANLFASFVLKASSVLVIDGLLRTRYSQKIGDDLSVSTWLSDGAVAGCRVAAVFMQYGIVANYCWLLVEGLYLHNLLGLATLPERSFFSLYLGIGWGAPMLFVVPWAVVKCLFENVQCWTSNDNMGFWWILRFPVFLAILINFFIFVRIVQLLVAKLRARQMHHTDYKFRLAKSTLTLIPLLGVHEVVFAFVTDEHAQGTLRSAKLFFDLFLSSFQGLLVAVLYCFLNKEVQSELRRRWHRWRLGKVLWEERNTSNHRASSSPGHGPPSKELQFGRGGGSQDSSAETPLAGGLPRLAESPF

[3] = target: T1, glucose-dependent insulinotropic …

Row | Binder | cAMP Primary assay EC50, Mean pM GLP-1R [1] [pM] | cAMP Primary assay EC50, n1 [1] [pM] | cAMP Primary assay EC50, n2 [1] [pM] | cAMP Primary assay EC50, n1 [2] [nM] | cAMP Primary assay EC50, n2 [2] [nM] | cAMP Primary assay EC50, n1 [3] [nM] | cAMP Primary assay EC50, n2 [3] [nM]
1 | H[Aib]EGS[αMeF]TSDK([PEG2′-PEG2′-γGlu-Lauroyl])SSYLEK([PEG2′-PEG2′-γGlu-Lauroyl])EAA[αMeK]EFIAFK([PEG2′-PEG2′-γGlu-Lauroyl])VEGG-NH2 [SEQ ID NO: 471] | 374 | 277 | 470 | 19.6 | 19.6 | 19.6 | 19.6
2 | H[Aib]EGS[αMeF]TSDV[αMeS]SYK([PEG2′-PEG2′-γGlu-Lauroyl])EGK([PEG2′-PEG2′-γGlu-Lauroyl])AA[αMeK]EFIAK([PEG2′-PEG2′-γGlu-Lauroyl])VVEGG-NH2 [SEQ ID NO: 468] | 73.5 | 62.4 | 84.5 | 20 | 20 | 20 | 20
3 | H[Aib]EGS[αMeF]TSDK([PEG2′-PEG2′-γGlu-Lauroyl])SSYLEGEK([PEG2′-PEG2′-γGlu-Lauroyl])A[αMeK]EFIAFK([PEG2′-PEG2′-γGlu-Lauroyl])VEGG-NH2 [SEQ ID NO: 473] | 434 | 399 | 470 | 19.6 | 19.6 | 19.6 | 19.6
4 | H[Aib]EGS[αMeF]TSDV[αMeS]SK([PEG2′-PEG2′-γGlu-Lauroyl])LEGEK([PEG2′-PEG2′-γGlu-Lauroyl])A[αMeK]EFIAFK([PEG2′-PEG2′-γGlu-Lauroyl])VEGG-NH2 [SEQ ID NO: 481] | 143 | 137 | 149 | 19.8 | 19.8 | 19.8 | 19.8
5 | H[Aib]EGS[αMeF]TSDV[αMeS]SYK([PEG2′-PEG2′-γGlu-Lauroyl])EK([PEG2′-PEG2′-γGlu-Lauroyl])EAA[αMeK]EFIAFK([PEG2′-PEG2′-γGlu-Lauroyl])VEGG-NH2 [SEQ ID NO: 483] | 244 | 229 | 258 | 19.6 | 19.6 | 19.6 | 19.6
6 | H[Aib]EGS[αMeF]TSDVSK([PEG2′-PEG2′-γGlu-Lauroyl])YLEGK([PEG2′-PEG2′-γGlu-Lauroyl])AA[αMeK]EFIAFK([PEG2′-PEG2′-γGlu-Lauroyl])VEGG-NH2 [SEQ ID NO: 476] | 216 | 174 | 257 | 19.8 | 19.8 | 19.8 | 19.8
7 | H[Aib]EGS[αMeF]TSDK([PEG2′-PEG2′-γGlu-Lauroyl])SSYLEGEAA[αMeK]K([PEG2′-PEG2′-γGlu-Lauroyl])FIAFK([PEG2′-PEG2′-γGlu-Lauroyl])VEGG-NH2 [SEQ ID NO: 474] | 290 | 279 | 300 | 19.9 | 19.9 | 19.9 | 19.9

The remaining lines, values ahead:

Row | cAMP Primary assay EC50, Mean pM GLP-1R [1] [pM] | cAMP Primary assay EC50, n1 [1] [pM] | cAMP Primary assay EC50, n2 [1] [pM] | cAMP Primary assay EC50, n1 [2] [nM] | cAMP Primary assay EC50, n2 [2] [nM] | cAMP Primary assay EC50, n1 [3] [nM] | cAMP Primary assay EC50, n2 [3] [nM] | Binder
8 | 287 | 297 | 277 | 19.9 | 19.9 | 19.9 | 19.9 | H[Aib]EGS[αMeF]TSDK([PEG2′-PEG2′-γGlu-Lauroyl])SSYLEGK([PEG2′-PEG2′-γGlu-Lauroyl])AA[αMeK]EFIAFK([PEG2′-PEG2′-γGlu-Lauroyl])VEGG-NH2 [SEQ ID NO: 472]
9 | 118 | 103 | 134 | 19.8 | 19.8 | 19.8 | 19.8 | H[Aib]EGS[αMeF]TSDVSK([PEG2′-PEG2′-γGlu-Lauroyl])YLEGEAA[αMeK]K([PEG2′-PEG2′-γGlu-Lauroyl])FIAFK([PEG2′-PEG2′-γGlu-Lauroyl])VEGG-NH2 [SEQ ID NO: 478]
10 | 186 | 132 | 239 | 19.8 | 19.8 | 19.8 | 19.8 | H[Aib]EGS[αMeF]TSDV[αMeS]SK([PEG2′-PEG2′-γGlu-Lauroyl])LEK([PEG2′-PEG2′-γGlu-Lauroyl])EAA[αMeK]EFIAFK([PEG2′-PEG2′-γGlu-Lauroyl])VEGG-NH2 [SEQ ID NO: 479]
11 | 264 | 226 | 302 | 19.6 | 19.6 | 19.6 | 19.6 | H[Aib]EGS[αMeF]TSDVSK([PEG2′-PEG2′-γGlu-Lauroyl])YLEGEK([PEG2′-PEG2′-γGlu-Lauroyl])A[αMeK]EFIAFK([PEG2′-PEG2′-γGlu-Lauroyl])VEGG-NH2 [SEQ ID NO: 477]
12 | 117 | 101 | 133 | 20 | 20 | 20 | 20 | H[Aib]EGS[αMeF]TSDV[αMeS]SK([PEG2′-PEG2′-γGlu-Lauroyl])LEGEK([PEG2′-PEG2′-γGlu-Lauroyl])A[αMeK]EFIAK([PEG2′-PEG2′-γGlu-Lauroyl])VVEGG-NH2 [SEQ ID NO: 465]
13 | 288 | 228 | 347 | 19.5 | 19.5 | 19.5 | 19.5 | H[Aib]EGS[αMeF]TSDVSK([PEG2′-PEG2′-γGlu-Lauroyl])YLEK([PEG2′-PEG2′-γGlu-Lauroyl])EAA[αMeK]EFIAFK([PEG2′-PEG2′-γGlu-Lauroyl])VEGG-NH2 [SEQ ID NO: 475]

— US20200079833A1 (AstraZeneca / MedImmune, published 2020)
